For five molecules, Km and kcat results are on record in article PMC4410396 (Acta Naturae, 2015).

The subject of data set [1] is T1, NC(=O)c1ccc[n+]([C@@H]2O[C@H](COP(=O)(O)OP(=O)(O)OC[C@H]3O[C@@H](n4cnc5c(N)ncnc54)[C@H](O)[C@@H]3O)[C@@H](O)[C@H]2O)c1.
T1 construct: recombinant, plasmid pPseFDH8, E. coli BL21(DE3)/pLysS; no tag mentioned; Phenyl Sepharose and Sephadex G-25
The data set is described as follows: purified protein. The format is biochemical, Pseudomonas sp. 101. The following applies: saturating formate (>15 KM), 0.1 M sodium phosphate pH 7.0, 30°C.

Data set [2] concerns T2, NC(=O)c1ccc[n+]([C@@H]2O[C@H](COP(=O)(O)OP(=O)(O)OC[C@H]3O[C@@H](n4cnc5c(N)ncnc54)[C@H](OP(=O)(O)O)[C@@H]3O)[C@@H](O)[C@H]2O)c1.
T2 construct: recombinant, plasmid pPseFDH8, E. coli BL21(DE3)/pLysS; no tag mentioned; Phenyl Sepharose and Sephadex G-25
The data set is described as follows: purified protein. The format is biochemical, Pseudomonas sp. 101. The conditions noted are these: saturating formate (>15 KM), 0.1 M sodium phosphate pH 7.0, 30°C.

The next data set concerns the target T3, MorFDH (Moraxella sp., UniProt O08375, A199G).
T3 construct: gene fdh; recombinant, plasmid pMorFDH2, E. coli BL21(DE3)/pLysS; no tag mentioned; Phenyl Sepharose and Sephadex G-25
T3 sequence (O08375 2-402 A199G): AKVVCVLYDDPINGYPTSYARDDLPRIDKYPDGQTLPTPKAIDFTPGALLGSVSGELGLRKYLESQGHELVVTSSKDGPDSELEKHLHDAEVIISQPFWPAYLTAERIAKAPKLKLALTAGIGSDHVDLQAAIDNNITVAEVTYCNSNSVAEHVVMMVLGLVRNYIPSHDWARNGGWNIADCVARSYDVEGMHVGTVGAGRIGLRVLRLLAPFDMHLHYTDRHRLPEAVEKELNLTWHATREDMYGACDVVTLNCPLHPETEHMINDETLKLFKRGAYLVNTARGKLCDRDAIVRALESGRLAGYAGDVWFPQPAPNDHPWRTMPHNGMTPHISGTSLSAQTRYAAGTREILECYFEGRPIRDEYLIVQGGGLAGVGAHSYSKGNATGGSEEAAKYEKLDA
The data set is described as follows: spectrophotometric NAD(P)H formation at […] nm. The format is biochemical. The conditions noted are these: saturating formate (>15 KM); 0.1 M sodium phosphate pH 7.0, 30°C; read-out: KMKNAD^+.

Substrate in the data set “purified protein”: NC(=O)c1ccc[n+]([C@@H]2O[C@H](COP(=O)(O)OP(=O)(O)OC[C@H]3O[C@@H](n4cnc5c(N)ncnc54)[C@H](OP(=O)(O)O)[C@@H]3O)[C@@H](O)[C@H]2O)c1
Put plainly: purified protein. The conditions noted are these: saturating formate (>15 KM), 0.1 M sodium phosphate pH 7.0, 30°C, printed with an asterisk. The format is biochemical, Pseudomonas sp. 101.

One may read the kcat as the maximal rate divided by the concentration of active sites. With PseFDH (Pseudomonas sp. 101; D222S), in data set [1], the Km turned out to be 710 ± 45 µM and the kcat was found to be 5.0 ± 0.3 s⁻¹.
On to “PseFDH (Pseudomonas sp. 101; A199G/D222S)”, for which, in data set [1], the Km was determined as 540 ± 42 µM and the kcat amounted to 5.0 ± 0.2 s⁻¹. Besides, in data set [2], the Km was 280 ± 25 µM and the kcat was found to be 1.8 ± 0.2 s⁻¹.
As to `NC(=O)c1ccc[n+]([C@@H]2O[C@H](COP(=O)(O)OP(=O)(O)OC[C@H]3O[C@@H](n4cnc5c(N)ncnc54)[C@H](O)[C@@H]3O)[C@@H](O)[C@H]2O)c1` [NAD^+], at MorFDH, the Km came to 45 ± 3 µM.
Take PseFDH (Pseudomonas sp. 101; A199G): the Km in data set [1] was 35 ± 2 µM.

B1: PseFDH (Pseudomonas sp. 101) (protein)
chain: AKVLCVLYDDPVDGYPKTYARDDLPKIDHYPGGQTLPTPKAIDFTPGQLLGSVSGELGLRKYLESNGHTLVVTSDKDGPDSVFERELVDADVVISQPFWPAYLTPERIAKAKNLKLALTAGIGSDHVDLQSAIDRNVTVAEVTYCNSISVAEHVVMMILSLVRNYLPSHEWARKGGWNIADCVSHAYDLEAMHVGTVAAGRIGLAVLRRLAPFDVHLHYTDRHRLPESVEKELNLTWHATREDMYPVCDVVTLNCPLHPETEHMINDETLKLFKRGAYIVNTARGKLCDRDAVARALESGRLAGYAGDVWFPQPAPKDHPWRTMPYNGMTPHISGTTLTAQARYAAGTREILECFFEGRPIRDEYLIVQGGALAGTGAHSYSKGNATGGSEEAAKFKKAV
notes: recombinant, plasmid pPseFDH8, E. coli BL21(DE3)/pLysS; no tag mentioned; Phenyl Sepharose and Sephadex G-25
In the case of B1, the kcat in “purified protein” stood at 1.3 ± 0.1 s⁻¹.
